Patent US20230374471A1, “SELF-ASSEMBLING URICASE FUSION PEPTIDES” (University of Florida Research Foundation, Incorporated, priority 2020, published 2023)

B2: Ac-QQKPKPKPKQQ-Am [mCATCH(+)] (peptide)
peptide: Ac-QQKPKPKPKQQ-NH2
notes: Mutant of CATCH(+) with proline in place of the phenylalanine residues

Tests used:
[1] = literature value (ref. 7); cited from earlier work
[2] = Circular dichroism: concentration-dependent transition from random coil to β-sheet; type: physicochemical; conditions: equimolar mixture of CATCH peptides in 1x PBS, ellipticity at 212 nm
Experimental: Circular Dichroism. Circular Dichroism was performed on an AVIV 202 spectrometer. Peptides were prepared in 1x PBS at 500 μM, unless stated otherwise. Samples were run 3 times, averaged, and converted to mean residue ellipticity. All data reported was for dynode values <500 V.
(§1) Nanofiber preparation. Stock solutions of CATCH(−) and CATCH(+) were prepared by dissolving lyophilized peptides in 1x PBS to a final concentration of 500 μM. Peptide concentration was confirmed using Phe absorbance (λ=260 nm). CATCH peptides were then mixed at a 1:1 (v/v) ratio and incubated overnight for formation of nanofibers, unless stated otherwise.

[3] = Protein incorporation and retention in macroscopic hydrogels under excess PBS; type: physicochemical
Experimental: Macroscopic Hydrogel Formation. A 12 mM stock solution of CATCH(−) was prepared by dissolving dry peptide in 1x PBS and adjusting the pH to ˜7.6 with ammonium bicarbonate (Fisher). A 12 mM stock solution of CATCH(+) was prepared by dissolving dry peptide in 1X PBS and adjusting the pH to ˜7.2 with hydrochloric acid (0.5 N Fisher). CATCH peptide stock solutions were combined at a 1:1 (v/v) ratio in a 0.2 mL glass vial (Thermo), and the vial was gently swirled for 2 min until the hydrogel formed. The hydrogel was stained with red food coloring to aid visualization. Hydrogel images were recorded using a digital still camera.
Protein Incorporation into Macroscopic Hydrogels. […] Immediately after hydrogel formation, fluorescence was visualized by placing the glass vials on a SafeImager 2.0 transilluminator (Invitrogen) and recording images with a digital still camera. […] At various time points, fluorescence in the buffer supernatant was visualized by placing the glass vials on a SafeImager 2.0 transilluminator (Invitrogen) and recording images with a digital still camera. At the end-point, buffer supernatant was carefully removed by decanting and fluorescence was visualized by placing the glass vials on a SafeImager 2.0 transilluminator (Invitrogen) and recording images with a digital still camera.

[4] = target: the molecule itself; assay: ThT fluorimetry, TEM, CD and fluorescence microscopy of the peptide alone
[5] = target: T1, Ac-EQEPEPEPEQE-Am [mCATCH(-)]; assay: ThT fluorimetry, equimolar mixture
T1 construct: Mutant of CATCH(-) with proline in place of the phenylalanine residues
T1 peptide: Ac-EQEPEPEPEQE-NH2
Experimental: (§2) Thioflavin T (ThT) Assay. A ThT stock solution containing 0.8 mg/mL of thioflavin T (Acros) in 1x phosphate-buffered saline (PBS) (137 mM NaCl, 2.7 mM KCl, 10 mM Na₂HPO₄ and 1.8 mM KH₂PO₄, pH 7.4) was filtered through a 0.22 μm syringe filter (Millex), and further diluted 1:10 with 1x PBS to create a working solution. Peptide samples were mixed with the ThT working solution at a 1:10 (v/v) ratio, added to a black 96-well plate (Corning), and analyzed with a Molecular Devices SpectraMax M3 spectrophotometer (excitation 450, emission 482 nm). All samples were run in triplicate, with the mean and standard deviation of these samples reported.
as §1

[6] = target: T1, Ac-EQEPEPEPEQE-Am [mCATCH(-)]; assay: ThT fluorimetry, kinetic, equimolar mixture
[7] = Dissolution of monosodium urate (MSU) crystals in vitro; type: biochemical; conditions: 12.6 ug soluble CATCH-U, 0.5 mg MSU crystals, 2250 U/mL catalase, 96 hours, density at 293 nm
Experimental: The enzymatic activity of CATCH-U in soluble and gel form was evaluated by measuring uric acid depletion over time via absorbance at 293 nm and 37° C. for varying concentrations of uric acid substrate. Hydrogels were left to incubate at 37° C. for 4 days with substrate removed and replenished daily to determine if the gels remain active over this timeframe. Gels were also incubated with monosodium urate (MSU) crystals.
Soluble CATCH-U activity in dissolving MSU crystals was assessed by incubating 12.6 ug soluble CATCH-U with 0.5 mg MSU crystals and 2250 U/mL catalase for 96 hours (FIG. 60). MSU crystal density was determined at 293 nm compared to a standard curve of crystals. […] Brightfield images, scale bar=[…].
The hydrogel creates a concentration gradient sufficient to dissolve crystallized uric acid in the form of monosodium urate (MSU) crystals (FIGS. 58 and 61). […] MSU crystals appear as white flakes while the background is black. The gel is the white mass on the right. […] A similar experiment was performed with lOuL hydrogels comprising 3.17 ug CATCH-U and incubated with 1 g/L MSU crystals for 24 hours (FIG. 61). […] Polarized, phase contrast images, scale bar=500 μm.

[8] = target: B2; assay: ThT fluorimetry, equimolar mixture
Experimental: as §2, §1

For “Ac-QQKFQFQFEQQ-Am (Ac-QQKFQFQFEQQ-NH2) [Q11]”, the “Concentration at which the peptide self-assembles into β-sheet nanofibers” value [1] is listed as roughly 10 µM.

With “CATCH peptides: equimolar mixture of CATCH(+) and CATCH(−) peptides that co-assemble into β-sheet nanofibers (Ac-QQKFKFKFKQQ-NH2; not fully specified)” the β-sheet fibrillization concentration [2] was “about 300 μM”.

In the case of “CATCH(−)GFP: recombinant fusion of CATCH(−) and superfolder green fluorescent protein (GFP)”, the “Fluorescence of hydrogel after incubation under excess 1x PBS” value ([3]; CATCH hydrogels formed in presence of the fusion protein, 48 h) is reported as “retained their fluorescence” and the “GFP in the buffer layer over the hydrogels” value ([3]; excess 1x PBS, up to 48 h) is reported as “no GFP was detected”.

B1: Ac-QQKFKFKFKQQ-Am [CATCH(+)] (peptide)
peptide: Ac-QQKFKFKFKQQ-NH2
notes: Synthetic designed cationic variant of Q11, made by Fmoc solid-phase synthesis; also called CATCH (4+); positive peptide
B1: no binding [4]; no binding [5].

B2: no binding [6].

B3: CATCH-U: uricase fused to a CATCH peptide, expressed in E. coli, purified via nickel affinity chromatography; probably SEQ ID NO: 9 (FIG. 59) (protein)
chain: MAEQEFEFEFEQEGSGGGSGGSGGGGSGGSGEFMSAVKAARYGKDNVRVYKVHKDEKTGVQTVYEMTVCVLLEGEIETSYTKADNSVIVATDSIKNTIYITAKQNPVTPPELFGSILGTHFIEKYNHIHAAHVNIVCHRWTRMDIDGKPHPHSFIRDSEEKRNVQVDVVEGKGIDIKSSLSGLTVLKSTNSQFWGFLRDEYTTLKETWDRILSTDVDATWQWKNFSGLQEVRSHVPKFDATWATAREVTLKTFAEDNSASVQATMYKMAEQILARQQLIETVEYSLPNKHYFEIDLSWHKGLQNTGKNAEVFAPQSDPNGLIKCTVGRSSLKSKLLEHHHHHH
In the case of B3, the “MSU crystal amount over time” value [7] is reported as “steady and significant decrease”.

B4: Ac-EQEFEFEFEQE-Am [CATCH(-)] (peptide)
peptide: Ac-EQEFEFEFEQE-NH2
notes: Synthetic designed anionic variant of Q11, made by Fmoc solid-phase synthesis; also called CATCH (6-); negative peptide
B4: no binding [4]; no binding [8].
